{"source": "IntAct's records for PubMed 31515488", "parents": {"B1": {"name": "Heat shock factor protein 2 (Homo sapiens), Q03933 (parent)", "chain": "MKQSSNVPAFLSKLWTLVEETHTNEFITWSQNGQSFLVLDEQRFAKEILPKYFKHNNMASFVRQLNMYGFRKVVHIDSGIVKQERDGPVEFQHPYFKQGQDDLLENIKRKVSSSKPEENKIRQEDLTKIISSAQKVQIKQETIESRLSELKSENESLWKEVSELRAKHAQQQQVIRKIVQFIVTLVQNNQLVSLKRKRPLLLNTNGAQKKNLFQHIVKEPTDNHHHKVPHSRTEGLKPRERISDDIIIYDVTDDNADEENIPVIPETNEDVISDPSNCSQYPDIVIVEDDNEDEYAPVIQSGEQNEPARESLSSGSDGSSPLMSSAVQLNGSSSLTSEDPVTMMDSILNDNINLLGKVELLDYLDSIDCSLEDFQAMLSGRQFSIDPDLLVDLFTSSVQMNPTDYINNTKSENKGLETTKNNVVQPVSEEGRKSKSKPDKQLIQYTAFPLLAFLDGNPASSVEQASTTASSEVLSSVDKPIEVDELLDSSLDPEPTQSKLVRLEPLTEAEASEATLFYLCELAPAPLDSDMPLLDS"}, "B2": {"name": "cGMP-dependent protein kinase 1 (Homo sapiens), Q13976 (parent)", "chain": "MSELEEDFAKILMLKEERIKELEKRLSEKEEEIQELKRKLHKCQSVLPVPSTHIGPRTTRAQGISAEPQTYRSFHDLRQAFRKFTKSERSKDLIKEAILDNDFMKNLELSQIQEIVDCMYPVEYGKDSCIIKEGDVGSLVYVMEDGKVEVTKEGVKLCTMGPGKVFGELAILYNCTRTATVKTLVNVKLWAIDRQCFQTIMMRTGLIKHTEYMEFLKSVPTFQSLPEEILSKLADVLEETHYENGEYIIRQGARGDTFFIISKGTVNVTREDSPSEDPVFLRTLGKGDWFGEKALQGEDVRTANVIAAEAVTCLVIDRDSFKHLIGGLDDVSNKAYEDAEAKAKYEAEAAFFANLKLSDFNIIDTLGVGGFGRVELVQLKSEESKTFAMKILKKRHIVDTRQQEHIRSEKQIMQGAHSDFIVRLYRTFKDSKYLYMLMEACLGGELWTILRDRGSFEDSTTRFYTACVVEAFAYLHSKGIIYRDLKPENLILDHRGYAKLVDFGFAKKIGFGKKTWTFCGTPEYVAPEIILNKGHDISADYWSLGILMYELLTGSPPFSGPDPMKTYNIILRGIDMIEFPKKIAKNAANLIKKLCRDNPSERLGNLKNGVKDIQKHKWFEGFNWEGLRKGTLTPPIIPSVASPTDTSNFDSFPEDNDEPPPDDNSGWDIDF"}, "B3": {"name": "Polyunsaturated fatty acid 5-lipoxygenase (Homo sapiens), P09917 (parent)", "chain": "MPSYTVTVATGSQWFAGTDDYIYLSLVGSAGCSEKHLLDKPFYNDFERGAVDSYDVTVDEELGEIQLVRIEKRKYWLNDDWYLKYITLKTPHGDYIEFPCYRWITGDVEVVLRDGRAKLARDDQIHILKQHRRKELETRQKQYRWMEWNPGFPLSIDAKCHKDLPRDIQFDSEKGVDFVLNYSKAMENLFINRFMHMFQSSWNDFADFEKIFVKISNTISERVMNHWQEDLMFGYQFLNGCNPVLIRRCTELPEKLPVTTEMVECSLERQLSLEQEVQQGNIFIVDFELLDGIDANKTDPCTLQFLAAPICLLYKNLANKIVPIAIQLNQIPGDENPIFLPSDAKYDWLLAKIWVRSSDFHVHQTITHLLRTHLVSEVFGIAMYRQLPAVHPIFKLLVAHVRFTIAINTKAREQLICECGLFDKANATGGGGHVQMVQRAMKDLTYASLCFPEAIKARGMESKEDIPYYFYRDDGLLVWEAIRTFTAEVVDIYYEGDQVVEEDPELQDFVNDVYVYGMRGRKSSGFPKSVKSREQLSEYLTVVIFTASAQHAAVNFGQYDWCSWIPNAPPTMRAPPPTAKGVVTIEQIVDTLPDRGRSCWHLGAVWALSQFQENELFLGMYPEEHFIEKPVKEAMARFRKNLEAIVSVIAERNKKKQLPYYYLSPDRIPNSVAI"}, "B4": {"name": "Casein kinase II subunit alpha' (Homo sapiens), P19784 (parent)", "chain": "MPGPAAGSRARVYAEVNSLRSREYWDYEAHVPSWGNQDDYQLVRKLGRGKYSEVFEAINITNNERVVVKILKPVKKKKIKREVKILENLRGGTNIIKLIDTVKDPVSKTPALVFEYINNTDFKQLYQILTDFDIRFYMYELLKALDYCHSKGIMHRDVKPHNVMIDHQQKKLRLIDWGLAEFYHPAQEYNVRVASRYFKGPELLVDYQMYDYSLDMWSLGCMLASMIFRREPFFHGQDNYDQLVRIAKVLGTEELYGYLKKYHIDLDPHFNDILGQHSRKRWENFIHSENRHLVSPEALDLLDKLLRYDHQQRLTAKEAMEHPYFYPVVKEQSQPCADNAVLSSGLTAAR"}, "B5": {"name": "Isoform 1 of Destrin (Homo sapiens), P60981-1 (parent)", "chain": "MASGVQVADEVCRIFYDMKVRKCSTPEEIKKRKKAVIFCLSADKKCIIVEEGKEILVGDVGVTITDPFKHFVGMLPEKDCRYALYDASFETKESRKEELMFFLWAPELAPLKSKMIYASSKDAIKKKFQGIKHECQANGPEDLNRACIAEKLGGSLIVAFEGCPV"}, "B6": {"name": "MIF4G domain-containing protein (Homo sapiens), A9UHW6 (parent)", "chain": "MGEPSREEYKIQSFDAETQQLLKTALKDPGAVDLEKVANVIVDHSLQDCVFSKEAGRMCYAIIQAESKQAGQSVFRRGLLNRLQQEYQAREQLRARSLQGWVCYVTFICNIFDYLRVNNMPMMALVNPVYDCLFRLAQPDSLSKEEEVDCLVLQLHRVGEQLEKMNGQRMDELFVLIRDGFLLPTGLSSLAQLLLLEIIEFRAAGWKTTPAAHKYYYSEVSD"}, "B7": {"name": "Isoform 1 of NF-kappa-B inhibitor beta (Homo sapiens), Q15653-1 (parent)", "chain": "MAGVACLGKAADADEWCDSGLGSLGPDAAAPGGPGLGAELGPGLSWAPLVFGYVTEDGDTALHLAVIHQHEPFLDFLLGFSAGTEYMDLQNDLGQTALHLAAILGETSTVEKLYAAGAGLCVAERRGHTALHLACRVGAHACARALLQPRPRRPREAPDTYLAQGPDRTPDTNHTPVALYPDSDLEKEEEESEEDWKLQLEAENYEGHTPLHVAVIHKDVEMVRLLRDAGADLDKPEPTCGRSPLHLAVEAQAADVLELLLRAGANPAARMYGGRTPLGSAMLRPNPILARLLRAHGAPEPEGEDEKSGPCSSSSDSDSGDEGDEYDDIVVHSSRSQTRLPPTPASKPLPDDPRPV", "partner": "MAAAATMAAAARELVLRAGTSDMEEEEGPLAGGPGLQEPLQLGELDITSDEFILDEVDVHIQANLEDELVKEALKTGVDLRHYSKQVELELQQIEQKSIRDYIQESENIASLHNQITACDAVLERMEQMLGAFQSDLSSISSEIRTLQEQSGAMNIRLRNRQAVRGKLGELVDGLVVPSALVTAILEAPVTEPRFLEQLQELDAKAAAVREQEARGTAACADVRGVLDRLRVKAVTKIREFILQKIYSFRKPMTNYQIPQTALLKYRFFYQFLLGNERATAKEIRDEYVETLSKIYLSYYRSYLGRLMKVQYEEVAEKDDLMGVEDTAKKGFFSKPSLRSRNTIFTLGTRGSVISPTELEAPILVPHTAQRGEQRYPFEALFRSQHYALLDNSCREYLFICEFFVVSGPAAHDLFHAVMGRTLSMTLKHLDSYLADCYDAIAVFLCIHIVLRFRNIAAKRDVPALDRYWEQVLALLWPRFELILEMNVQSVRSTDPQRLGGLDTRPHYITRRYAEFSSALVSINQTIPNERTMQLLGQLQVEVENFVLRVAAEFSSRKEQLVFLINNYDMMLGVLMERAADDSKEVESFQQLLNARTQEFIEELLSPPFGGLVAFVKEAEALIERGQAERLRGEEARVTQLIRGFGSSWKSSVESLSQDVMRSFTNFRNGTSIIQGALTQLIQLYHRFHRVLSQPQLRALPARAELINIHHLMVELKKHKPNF"}, "B8": {"name": "Isoform 1 of Equilibrative nucleoside transporter 1 (Homo sapiens), Q99808-1 (parent)", "chain": "MTTSHQPQDRYKAVWLIFFMLGLGTLLPWNFFMTATQYFTNRLDMSQNVSLVTAELSKDAQASAAPAAPLPERNSLSAIFNNVMTLCAMLPLLLFTYLNSFLHQRIPQSVRILGSLVAILLVFLITAILVKVQLDALPFFVITMIKIVLINSFGAILQGSLFGLAGLLPASYTAPIMSGQGLAGFFASVAMICAIASGSELSESAFGYFITACAVIILTIICYLGLPRLEFYRYYQQLKLEGPGEQETKLDLISKGEEPRAGKEESGVSVSNSQPTNESHSIKAILKNISVLAFSVCFIFTITIGMFPAVTVEVKSSIAGSSTWERYFIPVSCFLTFNIFDWLGRSLTAVFMWPGKDSRWLPSLVLARLVFVPLLLLCNIKPRRYLTVVFEHDAWFIFFMAAFAFSNGYLASLCMCFGPKKVKPAEAETAGAIMAFFLCLGLALGAVFSFLFRAIV", "partner": "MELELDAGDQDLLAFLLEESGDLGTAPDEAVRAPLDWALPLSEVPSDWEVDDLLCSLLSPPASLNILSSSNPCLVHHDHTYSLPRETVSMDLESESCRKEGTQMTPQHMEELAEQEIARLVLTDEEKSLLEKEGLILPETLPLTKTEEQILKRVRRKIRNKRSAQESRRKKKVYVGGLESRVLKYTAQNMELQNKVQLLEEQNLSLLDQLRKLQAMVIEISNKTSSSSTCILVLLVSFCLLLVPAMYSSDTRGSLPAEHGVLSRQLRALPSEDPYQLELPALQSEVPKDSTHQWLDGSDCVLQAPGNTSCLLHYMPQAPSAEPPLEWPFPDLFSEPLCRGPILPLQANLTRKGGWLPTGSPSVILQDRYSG"}, "B9": {"name": "U6 snRNA-associated Sm-like protein LSm7 (Homo sapiens), Q9UK45 (parent)", "chain": "MADKEKKKKESILDLSKYIDKTIRVKFQGGREASGILKGFDPLLNLVLDGTIEYMRDPDDQYKLTEDTRQLGLVVCRGTSVVLICPQDGMEAIPNPFIQQQDA"}}}
{"variants_of": "B1", "settings": "with mtus2_human MTUS2, Q5JR59"}
{"variant": "Q34H", "effect of a mutation on the interaction": "with no effect"}
{"variant": "V287I", "effect of a mutation on the interaction": "with no effect"}
{"variant": "D222V", "effect of a mutation on the interaction": "with no effect"}
{"variants_of": "B1", "settings": "with nup62_human NUP62, P37198"}
{"variant": "Q34H", "effect of a mutation on the interaction": "with no effect"}
{"variant": "V287I", "effect of a mutation on the interaction": "with no effect"}
{"variant": "D222V", "effect of a mutation on the interaction": "with no effect"}
{"variants_of": "B1", "settings": "with wdr5_human WDR5, P61964"}
{"variant": "Q34H", "effect of a mutation on the interaction": "with no effect"}
{"variant": "V287I", "effect of a mutation on the interaction": "with no effect"}
{"variant": "D222V", "effect of a mutation on the interaction": "with no effect"}
{"variants_of": "B1", "settings": "with tpm3_human TPM3, P06753"}
{"variant": "Q34H", "effect of a mutation on the interaction": "with no effect"}
{"variant": "V287I", "effect of a mutation on the interaction": "with no effect"}
{"variant": "D222V", "effect of a mutation on the interaction": "with no effect"}
{"variants_of": "B2", "settings": "with rbtn2_human LMO2, P25791"}
{"variant": "N267S", "effect of a mutation on the interaction": "with no effect"}
{"variants_of": "B2", "settings": "with zn646_human ZNF646, O15015"}
{"variant": "N267S", "effect of a mutation on the interaction": "with no effect"}
{"variants_of": "B3", "settings": "with cep63_human CEP63, Q96MT8"}
{"variant": "E254K", "effect of a mutation on the interaction": "with no effect"}
{"variants_of": "B3", "settings": "with nutm1_human NUTM1, Q86Y26"}
{"variant": "E254K", "effect of a mutation on the interaction": "with no effect"}
{"variants_of": "B4", "settings": "with tri41_human TRIM41, Q8WV44"}
{"variant": "N63T", "effect of a mutation on the interaction": "with no effect"}
{"variants_of": "B5", "settings": "with cof2_human CFL2, Q9Y281"}
{"variant": "G139E", "effect of a mutation on the interaction": "with no effect"}
{"variants_of": "B5", "settings": "with actb_human ACTB"}
{"variant": "G139E", "effect of a mutation on the interaction": "with no effect"}
{"variants_of": "B5", "settings": "with actg_human ACTG1, P63261"}
{"variant": "G139E", "effect of a mutation on the interaction": "with no effect"}
{"variants_of": "B6", "settings": "with hgs_human HGS"}
{"variant": "E160K", "effect of a mutation on the interaction": "with no effect"}
{"variants_of": "B7", "settings": "with vps52_human VPS52, Q8N1B4"}
{"variant": "Q69L", "effect of a mutation on the interaction": "with no effect"}
{"variants_of": "B8", "settings": "with creb3_human CREB3, O43889"}
{"variant": "A293T", "effect of a mutation on the interaction": "with no effect"}
{"variants_of": "B9", "settings": "with lsm5_human LSM5, Q9Y4Y9"}
{"variant": "G78A", "effect of a mutation on the interaction": "with no effect"}
